Biological target: hPcf11 (in CF II);hClp1 (human;human, UniProt O94913;Q92989 1-1555;1-425, |)
Assay: EMSA

Sequence of hPcf11 (in CF II);hClp1 (O94913 whole entry, chain 1 of 2): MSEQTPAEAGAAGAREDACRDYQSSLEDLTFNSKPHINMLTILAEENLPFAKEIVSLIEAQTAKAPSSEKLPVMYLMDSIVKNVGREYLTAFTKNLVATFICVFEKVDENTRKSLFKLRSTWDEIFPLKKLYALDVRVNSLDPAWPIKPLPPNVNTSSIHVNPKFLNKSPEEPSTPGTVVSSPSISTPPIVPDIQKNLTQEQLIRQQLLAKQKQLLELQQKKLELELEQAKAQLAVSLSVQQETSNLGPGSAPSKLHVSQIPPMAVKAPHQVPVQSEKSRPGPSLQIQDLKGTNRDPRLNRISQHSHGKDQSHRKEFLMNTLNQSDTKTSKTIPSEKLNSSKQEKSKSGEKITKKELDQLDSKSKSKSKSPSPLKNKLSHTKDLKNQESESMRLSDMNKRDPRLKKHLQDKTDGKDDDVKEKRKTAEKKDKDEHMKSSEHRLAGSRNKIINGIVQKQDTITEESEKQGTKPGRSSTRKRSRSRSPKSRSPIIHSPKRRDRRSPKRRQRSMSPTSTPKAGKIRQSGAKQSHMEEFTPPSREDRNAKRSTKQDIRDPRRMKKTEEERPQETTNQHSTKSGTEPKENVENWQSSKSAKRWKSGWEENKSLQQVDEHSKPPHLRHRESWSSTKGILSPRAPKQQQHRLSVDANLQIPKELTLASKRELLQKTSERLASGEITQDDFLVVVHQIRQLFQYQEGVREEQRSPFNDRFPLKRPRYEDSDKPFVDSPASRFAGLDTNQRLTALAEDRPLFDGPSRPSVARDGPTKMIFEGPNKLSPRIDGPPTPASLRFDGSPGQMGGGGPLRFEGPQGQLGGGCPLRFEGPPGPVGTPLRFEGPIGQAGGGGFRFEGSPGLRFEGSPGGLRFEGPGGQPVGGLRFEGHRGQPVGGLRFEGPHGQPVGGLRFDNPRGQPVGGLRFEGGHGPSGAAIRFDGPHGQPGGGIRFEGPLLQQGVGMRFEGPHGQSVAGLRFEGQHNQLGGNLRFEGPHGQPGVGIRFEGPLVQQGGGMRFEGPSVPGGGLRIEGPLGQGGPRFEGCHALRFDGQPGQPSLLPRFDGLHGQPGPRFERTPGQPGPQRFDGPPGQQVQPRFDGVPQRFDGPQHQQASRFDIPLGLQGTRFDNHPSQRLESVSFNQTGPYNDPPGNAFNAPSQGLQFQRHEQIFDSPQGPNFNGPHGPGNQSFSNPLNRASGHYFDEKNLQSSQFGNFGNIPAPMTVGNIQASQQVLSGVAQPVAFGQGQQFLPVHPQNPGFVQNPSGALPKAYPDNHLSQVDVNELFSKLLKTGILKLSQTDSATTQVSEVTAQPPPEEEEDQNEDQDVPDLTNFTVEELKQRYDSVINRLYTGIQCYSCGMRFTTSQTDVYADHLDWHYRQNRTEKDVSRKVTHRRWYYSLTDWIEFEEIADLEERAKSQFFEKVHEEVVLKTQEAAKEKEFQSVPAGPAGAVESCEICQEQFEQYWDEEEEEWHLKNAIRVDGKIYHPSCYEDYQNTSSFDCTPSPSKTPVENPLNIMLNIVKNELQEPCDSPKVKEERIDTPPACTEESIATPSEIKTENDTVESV
Sequence of hPcf11 (in CF II);hClp1 (Q92989 whole entry, chain 2 of 2): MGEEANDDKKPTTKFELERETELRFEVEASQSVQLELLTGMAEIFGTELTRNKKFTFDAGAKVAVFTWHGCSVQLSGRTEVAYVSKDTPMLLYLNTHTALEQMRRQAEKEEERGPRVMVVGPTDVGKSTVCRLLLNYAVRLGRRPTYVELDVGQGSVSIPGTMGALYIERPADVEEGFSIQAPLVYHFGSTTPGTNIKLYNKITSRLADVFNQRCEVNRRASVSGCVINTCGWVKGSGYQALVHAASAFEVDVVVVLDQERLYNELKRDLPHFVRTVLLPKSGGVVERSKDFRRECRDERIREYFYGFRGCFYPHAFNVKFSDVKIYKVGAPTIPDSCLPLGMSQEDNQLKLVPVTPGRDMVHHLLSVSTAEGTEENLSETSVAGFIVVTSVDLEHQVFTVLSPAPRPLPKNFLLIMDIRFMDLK

Row | Binder | Kd [nM]
1 | UUUAAGUGGGUCACG (ssRNA) [BS2-d3] | 105
2 | GGGUUUAAGUGGGUCACGUUUAAAC (ssRNA) [BS2] | 11
3 | GGUUCAGGGGGAGGUGUGGGAGG (ssRNA) [202-224] | 0.8
4 | GGGGGGGGGGG (ssRNA) [G11] | 41
5 | CCCUUUAAGUGGGUCACG (ssRNA) [BS2-d2] | 54
6 | GGGGGAGGUGUGGGAGG (ssRNA) [208-224] | 5.2
7 | GGGGGAGGUGUGGGAGGU (ssRNA) [208-225] | 2.6
8 | GGGUUUAAGUGGGUCACG (ssRNA) [BS2-d1] | 13
9 | GGGGGGGGGGGG (ssRNA) [G12] | 21 ± 9
10 | GGGGGGGGGGGGG (ssRNA) [G13] | 21 ± 12

— publication doi:10.1101/366336
